The target of data set [1] is T1, HMGA1b (full length) (UniProt P17096-2 P17096-2:1-96). As to the kind of experiment: competition; equal amount did not interfere with HMGA1-ATf10 complex; 1:1 ATf10:HMGA1. Conditions: tags: expressed from pET-30b in E. coli BL21(DE3); TCA precipitation and Sephadex G-25. The protocol: (§1) The HMGA protein samples were prepared in 25 mM Tris-HCl (pH 6.5), 50 mM NaCl, and the concentrations determined based on UV […] absorbance (ε=38,200 mol-1 cm-1). […] Nature structural biology 4 (1997) 657-665, the disclosure of which is incorporated herein by reference in its entirety and incubated at 4° C. for 15 minutes prior to gel analysis. The protein-DNA complexes were resolved on a 7.5% polyacrylmide gel and run with TAE buffer at 20 mA for 2-3 hours at 4° C. The DNA was detected at 495 nm using the VersaDoc™ Imaging System Model 3000 from BIO-RAD Laboratories, Inc. of Hercules, Calif. (USA). The gels were further stained with coomassie blue and visualized by an AlphaImager (Alpha Innotech, San Leandro, Calif.).
T1 sequence (P17096 other isoform, or with tags, fused parts or gaps): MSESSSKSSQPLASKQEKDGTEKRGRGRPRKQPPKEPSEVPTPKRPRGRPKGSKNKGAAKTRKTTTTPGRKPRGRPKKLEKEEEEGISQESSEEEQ

The target in data set [2] is T1, HMGA1b (full length). As to the kind of experiment: competition; about half of ATf10 displaced at 1:1 ATf10:ATs10; similar affinity to unmodified DNA. The conditions noted are these: tags: expressed from pET-30b in E. coli BL21(DE3); TCA precipitation and Sephadex G-25. The protocol: as §1
Data set [3] has as its target T1, HMGA1b (full length). As to the kind of experiment: EMSA; nearly completely shifted at DNA:HMGA1 1:1.5; 25 mM Tris-HCl pH 6.5, 50 mM NaCl, 4 C. The conditions noted are these: tags: expressed from pET-30b in E. coli BL21(DE3); TCA precipitation and Sephadex G-25; label: 5'-6-FAM. The protocol: as §1
For orientation: In EMSA bound probe runs differently from free probe, usually more slowly.

B1: Mix10 (dsDNA)
DNA 1: GGGCGTGACTGAGCGCGGCGGCCCCGCG
DNA 2: CGCGGGGCCGCCGCGCTCAGTCACGCCC
Consider B1, for which the binding result in data set [1] is recorded as “no binding”.

B2: ATs10 (dsDNA)
DNA 1: GGGTTTTTTTTTTCGCGGCGGCCCCGCG
DNA 2: CGCGGGGCCGCCGCGAAAAAAAAAACCC
modifications: PS at the T10 tract linkages of the printed strand (GGGT*T*T*T*T*T*T*T*T*T*CGCG..); complementary strand unmodified
In data set [2], B2 registered a binding signal of around 1 fold affinity vs ATf10.

B3: CG10 (dsDNA)
DNA 1: GGGCCCCCCCCCCCGCGGCGGCCCCGCG
DNA 2: CGCGGGGCCGCCGCGGGGGGGGGGGCCC
Consider B3, for which the binding result in data set [1] is on record as “no binding”.

B4: ATf10 (dsDNA)
DNA 1: CGCGGGGCCGCCGCGAAAAAAAAAAACCC
DNA 2: GGGTTTTTTTTTTTCGCGGCGGCCCCGCG
For the molecule B4, the binding result in data set [3] is “binds”.

For the origin of these results see patent US20140107188, “USE OF HGMA-TARGETED PHOSPHOROTHIOATE DNA APTAMERS TO SUPPRESS CARCINOGENIC ACTIVITY AND INCREASE SENSITIVITY TO CHEMOTHERAPY AGENTS IN HUMAN CANCER CELLS” (Miami University, published 2014).
